From patent US20230265171A1
Read-outs that look alike come from different tables or passages of the source.

Key:
[1] = target: SARS-CoV-2 spike on GFP reporter pseudotype virus (SARS-CoV-2) (UniProt P0DTC2); assay: cell-based or functional assay
[2] = target: SARS-CoV-2 spike glycoprotein S1 region (SARS-CoV-2) (UniProt P0DTC2); assay: ELISA, coated antigen
[3] = target: SARS-CoV-2 spike receptor binding domain (RBD) (SARS-CoV-2) (UniProt P0DTC2); assay: ELISA, coated antigen
HCoV-NL63 S1 (HCoV-NL63) = HCoV-NL63 S1 (HCoV-NL63) (UniProt Q6Q1S2); assay: ELISA, antigen coated at 2 µg/mL
MERS CoV S1 (MERS CoV) = MERS CoV S1 (MERS CoV) (UniProt K9N5Q8); assay: ELISA, antigen coated at 2 µg/mL
HCoV-229E S1 (HCoV-229E) = HCoV-229E S1 (HCoV-229E) (UniProt P15423); assay: ELISA, antigen coated at 2 µg/mL
SARS CoV RBD (SARS-CoV) = SARS CoV RBD (SARS-CoV) (UniProt P59594); assay: ELISA, antigen coated at 2 µg/mL
[4] = target: SARS-CoV-2 spike glycoprotein S1 region (SARS-CoV-2) (UniProt P0DTC2); assay: ELISA, coated antigen; remark: listed apart in the source
[5] = target: SARS-CoV-2 spike receptor binding domain (RBD) (SARS-CoV-2) (UniProt P0DTC2); assay: ELISA, coated antigen; remark: listed apart in the source
[6] = target: Dengue serotype 1 envelope antigens on pseudotype virus (Dengue virus serotype 1); assay: cell-based or functional assay
[7] = target: SARS-CoV-2 spike receptor binding domain (RBD) (SARS-CoV-2) (UniProt P0DTC2); assay: RBD:ACE2-His blocking ELISA, competitor ACE2-His

| Substance | CoV-2 pseudotype neutralization IC50 [1] | EC50 [2] | EC50 [3] | EC50 (HCoV-NL63 S1 (HCoV-NL63)) | EC50 (MERS CoV S1 (MERS CoV)) | EC50 (HCoV-229E S1 (HCoV-229E)) | EC50 (SARS CoV RBD (SARS-CoV)) | EC50 [4] | peak OD signal [4] | EC50 [5] | peak OD signal [5] | Neutralization IC50 [6] | IC50 [7] |
| --- | --- | --- | --- | --- | --- | --- | --- | --- | --- | --- | --- | --- | --- |
| SARS CoV mAb [CR3022] (antibody) | 100 µg/mL | 0.078 µg/mL | 0.088 µg/mL | – | – | – | – | – | – | – | – | – | – |
| IVIG (Gamunex) | – | 1380 µg/mL | 1250 µg/mL | 140 µg/mL | 1330 µg/mL | 96 µg/mL | 1280 µg/mL | 1410 µg/mL | 1.99 OD | 1270 µg/mL | 2.26 OD | 12.2 µg/mL | – |
| SARS CoV-2 mAb [SAD-S35] (antibody) | 0.26 µg/mL | 0.058 µg/mL | 0.057 µg/mL | – | – | – | – | – | – | – | – | – | 1.1 µg/mL |
